Source: patent US5686583, “Specific antibodies against activated platelets, the preparation thereof and the use thereof in diagnosis and therapy” (Behringwerke Aktiengesellschaft, dated 1997)

Legend:
[1] = molecular target: platelet antigen recognized by MAb BW 2128 (human); assay: reaction with platelets; method not further stated
[2] = molecular target: fibronectin (Homo sapiens (Human), UniProt P02751-8); assay: immunoprecipitation and Western blotting
[3] = molecular target: fibrinogen (Homo sapiens (Human), UniProt P02671-2); assay: immunoprecipitation and Western blotting
[4] = molecular target: v. Willebrand factor (Homo sapiens (Human), UniProt P04275); assay: Western blot
[5] = molecular target: human thrombospondin (TSP) (human, UniProt P07996); assay: Western blot
[6] = molecular target: gP 140 (Homo sapiens (Human), UniProt P16109); assay: Western blot

- fold stronger reaction with thrombin-activated than with non-activated platelets [1]: > 10 ×
- binding result [2]: no binding
- binding result [3]: no binding
- binding result [4]: no binding
- binding result [5]: no binding
- binding result [6]: no binding
B1: MAb BW 2128 (antibody, V domains shown)
VH: LQQSGAELVKPGASVTLSCKASGYTFTSYWMHWVKQRPGQGLEWIGEINPSNGRTNYNEKFKSKATLTVDKSSSTAYMHLSSLTSDDSAVYYCARGAGAGGYWGQGTTVTVSS
VL: QLTQSPAIMSASPGEKVTMTCSASSSVTYMHWCQQKSGTSPKRWIYDTSKLASGVPARFSGSGSGTSYSLTISSMEAEDAATYYCQQWNSNPLTFGAGTKLEI
